The test concerns the target HLA-A*02:01 (Homo sapiens, UniProt P04439, D140Y/D185E/D98H/E176V/E277Q/G131W/G231S/I119V/I121R/I166T/I218V/L300P/L318F/N151K/N90K/P208A/P217A/Q86G/Q94H/R138H/R169H/T345S). Kind of test: MHC binding assay: UV-ligand exchange with β2m ELISA (peptide exchange yield). The note with it: binding to HLA-A*02:01 evaluated by peptide exchange yield (UV-ligand exchange, β2m ELISA). Summed up: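 UV-exchange pMHC monomers, 100-fold diluted → streptavidin capture 1 h 37 °C → HRP anti-β2m 2 ug/ml 1 h 37 °C → TMB, A450. Yield from HLA-A*02:01/MLA-001 monomer standard curve, 15-500 ng/ml. Only stably bound peptides keep β2m-containing complexes intact.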
In general terms: ELISA stands for enzyme-linked immunosorbent assay.

As to “154 (AIIKEIQTV; listed as Homo sapiens) [compound 154]”, the Peptide exchange entry is recorded as “++ (≥20% = ++)”.
Consider “175 (SLLDLVQSL; listed as Homo sapiens) [compound 175]”, for which the Peptide exchange result was “+++ (≥50 = +++)”.
“173 (RLIDIYKNV; listed as Homo sapiens) [compound 173]”: the Peptide exchange entry is recorded as “+++ (≥50 = +++)”.
Consider “88 (LLLPLELSLA; listed as Homo sapiens) [compound 88]”, for which the Peptide exchange entry is “+++ (≥50 = +++)”.
Take “252 (SLMEKNQSL; listed as Homo sapiens) [compound 252]”: the Peptide exchange entry was “++ (≥20% = ++)”.
The value for “281 (LLLESDPKVYSL; listed as Homo sapiens) [compound 281]” was “++ (≥20% = ++)”.
As for “244 (NVAEIVIHI; listed as Homo sapiens) [compound 244]”, the Peptide exchange result is “+++ (≥50 = +++)”.
Turning to “33 (TLDRNSLYV; listed as Homo sapiens) [compound 33]”, the Peptide exchange entry is “++ (≥20% = ++)”.
The value for “30 (IITEVITRL; listed as Homo sapiens) [compound 30]” was “+++ (≥50 = +++)”; that for “155 (TLDSYLKAV; listed as Homo sapiens) [compound 155]” was “++ (≥20% = ++)”; that for “174 (ALYSGDLHAA; listed as Homo sapiens) [compound 174]” was “++ (≥20% = ++)”.
As to “123 (QTAPEEAFIKL; listed as Homo sapiens) [compound 123]”, the Peptide exchange result is on record as “+ (≥10% = +)”.
With “264 (TLHDQVHLL; listed as Homo sapiens) [compound 264]”, the Peptide exchange entry is “++ (≥20% = ++)”.
Regarding “210 (GLAGDNIYL; listed as Homo sapiens) [compound 210]”, the Peptide exchange entry is “+++ (≥50 = +++)”.
Consider “84 (FLLEREQLL; listed as Homo sapiens) [compound 84]”, for which the Peptide exchange entry was “++++ (≥75% = ++++)”.
As for “75 (ALLDGALQL; listed as Homo sapiens) [compound 75]”, the Peptide exchange result was “+++ (≥50 = +++)”.
For the substance “203 (FLFVDPELV; listed as Homo sapiens) [compound 203]”, the Peptide exchange result is listed as “++ (≥20% = ++)”.
For the substance “212 (MTLSEIHAV; listed as Homo sapiens) [compound 212]”, the Peptide exchange result is “++ (≥20% = ++)”.
Take “183 (ALSYILPYL; listed as Homo sapiens) [compound 183]”: the Peptide exchange result is reported as “+++ (≥50 = +++)”.
Regarding “277 (KLQEELNKV; listed as Homo sapiens) [compound 277]”, the Peptide exchange result was “+++ (≥50 = +++)”.
The value for “69 (LKVLKADVVL; listed as Homo sapiens) [compound 69]” was “++ (≥20% = ++)”; that for “101 (SLLEVNEASSV; listed as Homo sapiens) [compound 101]” was “+++ (≥50 = +++)”.
The value for “97 (KLFEKSTGL; listed as Homo sapiens) [compound 97]” was “+++ (≥50 = +++)”; that for “6 (FLNAIETAL; listed as Homo sapiens) [compound 6]” was “++++ (≥75% = ++++)”.
Take “271 (VLIEYNFSI; listed as Homo sapiens) [compound 271]”: the Peptide exchange result is listed as “+++ (≥50 = +++)”.
As for “184 (ALDSTIAHL; listed as Homo sapiens) [compound 184]”, the Peptide exchange result is on record as “++ (≥20% = ++)”.
Regarding “22 (LMYPYIYHV; listed as Homo sapiens) [compound 22]”, the Peptide exchange result is listed as “+++ (≥50 = +++)”.
Turning to “71 (HMSGKLTNV; listed as Homo sapiens) [compound 71]”, the Peptide exchange entry was “++ (≥20% = ++)”.
Turning to “229 (YLYELEHAL; listed as Homo sapiens) [compound 229]”, the Peptide exchange result is “++ (≥20% = ++)”.
For “40 (KIWEELSVLEV; listed as Homo sapiens) [compound 40]”, the Peptide exchange entry is listed as “+++ (≥50 = +++)”.
Consider “42 (KQMSISTGL; listed as Homo sapiens) [compound 42]”, for which the Peptide exchange result is “++ (≥20% = ++)”.
On to “35 (VIIKGLEEI; listed as Homo sapiens) [compound 35]”, for which the Peptide exchange entry is “++ (≥20% = ++)”.
On to “91 (LLPSIFLMV; listed as Homo sapiens) [compound 91]”, for which the Peptide exchange entry was “++ (≥20% = ++)”.
Consider “37 (QIVELIEKI; listed as Homo sapiens) [compound 37]”, for which the Peptide exchange result was “++ (≥20% = ++)”.
For “192 (TLLPSSGLVTL; listed as Homo sapiens) [compound 192]”, the Peptide exchange entry was “++ (≥20% = ++)”.
For “18 (KTASINQNV; listed as Homo sapiens) [compound 18]”, the Peptide exchange result is “++ (≥20% = ++)”.
For “276 (RMPTVLQCV; listed as Homo sapiens) [compound 276]” the value was “+++ (≥50 = +++)”; for “185 (TLYQGLPAEV; listed as Homo sapiens) [compound 185]”, “++ (≥20% = ++)”.
For “214 (ALFETLIQL; listed as Homo sapiens) [compound 214]” the value was “+++ (≥50 = +++)”; for “217 (LLWPSSVPA; listed as Homo sapiens) [compound 217]”, “+++ (≥50 = +++)”; for “204 (SEWGSPHAAVP; listed as Homo sapiens) [compound 204]”, “+++ (≥50 = +++)”.
For the substance “132 (ALLNNVIEV; listed as Homo sapiens) [compound 132]”, the Peptide exchange result is given as “+++ (≥50 = +++)”.
As to “90 (AILNVDEKNQV; listed as Homo sapiens) [compound 90]”, the Peptide exchange result was “++ (≥20% = ++)”.
As for “121 (ALYVQAPTV; listed as Homo sapiens) [compound 121]”, the Peptide exchange entry was “++ (≥20% = ++)”.
Consider “161 (NLLDENVCL; listed as Homo sapiens) [compound 161]”, for which the Peptide exchange entry is “++++ (≥75% = ++++)”.
For “266 (FLLDKPQDL; listed as Homo sapiens) [compound 266]”, the Peptide exchange entry is listed as “++ (≥20% = ++)”.
Regarding “58 (HLLGEGAFAQV; listed as Homo sapiens) [compound 58]”, the Peptide exchange entry is recorded as “+++ (≥50 = +++)”.
Turning to “171 (LLLLDVPTA; listed as Homo sapiens) [compound 171]”, the Peptide exchange entry is listed as “++ (≥20% = ++)”.
Take “20 (ALVEKGEFAL; listed as Homo sapiens) [compound 20]”: the Peptide exchange result is reported as “++ (≥20% = ++)”.
Take “194 (KLLEEVQLL; listed as Homo sapiens) [compound 194]”: the Peptide exchange entry was “++ (≥20% = ++)”.
As to “249 (YLYQILQGI; listed as Homo sapiens) [compound 249]”, the Peptide exchange entry is on record as “+++ (≥50 = +++)”.
For “285 (MLLDTVQKV; listed as Homo sapiens) [compound 285]”, the Peptide exchange result is on record as “+++ (≥50 = +++)”.
Regarding “9 (SLITGQDLLSV; listed as Homo sapiens) [compound 9]”, the Peptide exchange result is “+++ (≥50 = +++)”.
In the case of “255 (FLMKNSDLYGA; listed as Homo sapiens) [compound 255]”, the Peptide exchange entry is given as “+++ (≥50 = +++)”.
As to “126 (QLREAFEQL; listed as Homo sapiens) [compound 126]”, the Peptide exchange entry is on record as “+++ (≥50 = +++)”.
Turning to “122 (SIIDTELKV; listed as Homo sapiens) [compound 122]”, the Peptide exchange result is “+++ (≥50 = +++)”.
For the substance “262 (LLLEAVWHL; listed as Homo sapiens) [compound 262]”, the Peptide exchange result is “+++ (≥50 = +++)”.
As to “36 (TVLQELINV; listed as Homo sapiens) [compound 36]”, the Peptide exchange result was “+++ (≥50 = +++)”.
On to “241 (KQFEGTVEI; listed as Homo sapiens) [compound 241]”, for which the Peptide exchange result is recorded as “+++ (≥50 = +++)”.
“224 (LLFDWSGTGRADA; listed as Homo sapiens) [compound 224]”: the Peptide exchange result is “+++ (≥50 = +++)”.
Consider “263 (SIIEYLPTL; listed as Homo sapiens) [compound 263]”, for which the Peptide exchange result is “+++ (≥50 = +++)”.
Take “178 (SLVSWQLLL; listed as Homo sapiens) [compound 178]”: the Peptide exchange result is on record as “++++ (≥75% = ++++)”.
For “187 (SILKEDPFL; listed as Homo sapiens) [compound 187]” the value was “++ (≥20% = ++)”; for “177 (ALINVLNAL; listed as Homo sapiens) [compound 177]”, “+++ (≥50 = +++)”.
The value for “284 (KLMDPGSLPPL; listed as Homo sapiens) [compound 284]” was “++ (≥20% = ++)”; that for “105 (AMLASQTEA; listed as Homo sapiens) [compound 105]” was “++ (≥20% = ++)”.
The value for “149 (NMADGQLHQV; listed as Homo sapiens) [compound 149]” was “++ (≥20% = ++)”; that for “92 (RLFEEVLGV; listed as Homo sapiens) [compound 92]” was “++++ (≥75% = ++++)”.
For the substance “216 (ALSTVTPRI; listed as Homo sapiens) [compound 216]”, the Peptide exchange entry was “++ (≥20% = ++)”.
With “25 (LLWGHPRVALA; listed as Homo sapiens) [compound 25]”, the Peptide exchange result was “+++ (≥50 = +++)”.
The value for “111 (AQLEGKLVSI; listed as Homo sapiens) [compound 111]” was “+++ (≥50 = +++)”.
For “166 (LLGDSSFFL; listed as Homo sapiens) [compound 166]”, the Peptide exchange result is “+++ (≥50 = +++)”.

For the origin of these results see patent publication US10745460B2, “Peptides and combination of peptides for use in immunotherapy against various tumors” (Immatics Biotechnologies GmbH, priority 2015, dated 2020).
